Data reported in publication PMC8053095.
Numbering of substitutions follows the chain as printed. Where two headings read alike, the source gives them in different places.

Tests used:
[1] = target: T1, ToPif1 (Thermus oshimai, UniProt K7RJ88 64-507); assay: DLS
T1 sequence: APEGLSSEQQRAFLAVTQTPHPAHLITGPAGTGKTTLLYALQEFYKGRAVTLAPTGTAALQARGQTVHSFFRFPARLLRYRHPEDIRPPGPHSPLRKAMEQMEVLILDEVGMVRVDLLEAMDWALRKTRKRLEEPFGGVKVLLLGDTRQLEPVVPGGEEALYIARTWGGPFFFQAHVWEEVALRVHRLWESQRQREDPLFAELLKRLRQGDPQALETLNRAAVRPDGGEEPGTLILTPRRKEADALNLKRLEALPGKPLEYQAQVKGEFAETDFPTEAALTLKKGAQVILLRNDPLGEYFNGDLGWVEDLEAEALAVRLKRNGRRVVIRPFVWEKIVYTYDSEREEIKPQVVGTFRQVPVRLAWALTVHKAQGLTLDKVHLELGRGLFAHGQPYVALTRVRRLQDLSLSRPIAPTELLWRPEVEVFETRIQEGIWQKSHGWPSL

[2] = target: T2, ToPif1 S69C/S405C (Thermus oshimai, UniProt K7RJ88 64-507, S69C;S405C); assay: smFRET
T2 sequence: T1 sequence with S6C, S342C

[3] = target: T1, ToPif1; assay: crystal structure
[4] = target: T2, ToPif1 S69C/S405C; assay: smFRET; remark: listed apart in the source

B1: dT15 (ssDNA)
DNA: TTTTTTTTTTTTTTT
binding result [1]: binds

B2: dT8 (ssDNA)
DNA: TTTTTTTT
binding result [2]: binds

B3: S7D11 (dsDNA)
DNA 1: TTTTTTTCGCAGTGCTCG
DNA 2: CGAGCACTGCG
binding result [3]: binds

B4: S8D38 (dsDNA)
DNA 1: TTTTTTTTTCCGGATCACCATGGCGGACTCTCTGCTCTCGTGCTCC
DNA 2: GGAGCACGAGAGCAGAGAGTCCGCCATGGTGATCCGGA
binding result [4]: binds
